# Earlier results as cited in article PMC10018202.
# Legend:
# [1] = molecular target: Cys283 (UniProt position 283, GYILTCPSNLG)
# [2] = molecular target: Cys34 (UniProt position 58, QYLQQCPFEDH); experiment: chemical modification (thiol-disulfide exchange with 2,2'-dithiodipyridine, per the title of the cited reference); the article calls it 'spectroscopic measurements'; settings: not stated (the article notes the pKa changes by 1.5 pH units depending on the ionic strength of the buffer)
Substance,pKa [1],pKa [2]
Creatine kinase (the quoted measurement is most likely on human muscle-type CK; the article's docking target is brain-type CK) (Homo sapiens),around 5.7 and ∼5.6,
Serum albumin (HSA) (Homo sapiens),,around 7
